Substrate: O=P(O)(O)OC[C@H]1O[C@@H](n2cnc3c(O)ncnc32)C[C@@H]1O
Test: Kinetic parameters of His-RCL (wild-type) with dNMP substrates, initial velocity measurements
Assay type: biochemical, rat
Conditions: purine deoxynucleotides; 37.0 °C
Protocol: The enzyme activity was determined either spectrophotometrically by following one of the reaction products, hypoxanthine or deoxyribose 5-phosphate, or by HPLC separation and UV detection of the released nucleobase and the remaining substrate. a) dIMP was used as a substrate and the hypoxanthine released oxidized to uric acid by xanthine oxidase. […] The decrease in absorbance at 340 nm was followed on a Amersham Biosciences Ultrospec 3100 pro spectrophotometer, using a millimolar absorbance coefficient of 6.22. […] Initial velocity experiments were carried out at variable concentrations of the six deoxynucleoside 5'-monophosphate: dAMP, dCMP, dGMP, dIMP, dTMP and dUMP (Table 1).

B1: His-RCL (deoxynucleoside 5′-monophosphate N-glycosidase) (Rattus norvegicus) (protein)
chain: MAASGEQAPCSVYFCGSIRGGREDQALYARIVSRLRRYGKVLTEHVADAELEPLGEEAAGGDQFIHEQDLNWLQQADVVVAEVTQPSLGVGYELGRAVALGKPILCLFRPQSGRVLSAMIRGAADGSRFQVWDYAEGEVETMLDRYFEAYLPQKTASSSHPSA
notes: made in house; host or cells: E. coli Bli5 (BL21 (DE3) pDIA17), plasmid pET28aRcl
B1 was tested, and the Km was 450 µM, the kcat was 0.0066 s⁻¹ and the kcat/Km was 14.7 M⁻¹ s⁻¹.

— US7781394B2, “Methods for identifying anti-tumor and/or anti-angiogenesis drugs with deoxynucleoside 5′-monophosphate N-glycosidase as the target” (Institut Pasteur, priority 2006, dated 2010)
